Data published in US20230028476A1 (EVOTEC INTERNATIONAL, published 2023).
Where two headings read alike, the source gives them in different places.

Assays:
Assay in all cases: cell-based or functional assay
human CD40 [1] = target: T1, human CD40 (human, UniProt P25942 21-277)
[2] = target: human IFN receptor on HEK-Blue IFN-γ cells (human)
[3] = target: human IFN receptor on HEK-Blue IFN-γ cells (human); remark: listed apart in the source
[4] = target: human IFN receptor on HEK-Blue IFN-λ cells (human)
[5] = target: human IFN receptor on HEK-Blue IFN-α/β cells (human)
human CD40 [6] = target: T1, human CD40; remark: listed apart in the source
human CD40 [7] = target: T1, human CD40; remark: listed apart in the source

T1 sequence (P25942 21-277): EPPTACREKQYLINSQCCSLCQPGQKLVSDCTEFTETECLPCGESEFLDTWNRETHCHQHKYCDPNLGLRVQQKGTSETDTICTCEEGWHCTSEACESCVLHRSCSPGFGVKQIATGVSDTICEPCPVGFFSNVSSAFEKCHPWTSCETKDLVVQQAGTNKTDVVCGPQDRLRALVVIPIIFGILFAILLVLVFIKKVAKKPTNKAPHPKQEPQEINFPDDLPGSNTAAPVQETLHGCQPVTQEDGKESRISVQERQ

B1: IFA42 (antibody, human IgG2, kappa)
light: DIQMTQSPSSVSASVGDRVTITCRASQGIYSWLAWYQQKPGKAPNLLIYTASTLQSGVPSRFSGSGSGTDFTLTISSLQPEDFATYYCQQANIFPLTFGGGTKVEIKRTVAAPSVFIFPPSDEQLKSGTASVVCLLNNFYPREAKVQWKVDNALQSGNSQESVTEQDSKDSTYSLSSTLTLSKADYEKHKVYACEVTHQGLSSPVTKSFNRGECGGGGSGGGGSGGGGSGGGGSQDPYVKEAENLKKYFNAGHSDVADNGTLFLGILKNWKEESDRKIMQSQIVSFYFKLFKNFKDDQSIQKSVETIKEDMNVKFFNSNKKKRDDFEKLTNYSVTDLNVQRKAIHELIQVMAELSPAAKTGKRKRSQMLFRGRRASQ
heavy: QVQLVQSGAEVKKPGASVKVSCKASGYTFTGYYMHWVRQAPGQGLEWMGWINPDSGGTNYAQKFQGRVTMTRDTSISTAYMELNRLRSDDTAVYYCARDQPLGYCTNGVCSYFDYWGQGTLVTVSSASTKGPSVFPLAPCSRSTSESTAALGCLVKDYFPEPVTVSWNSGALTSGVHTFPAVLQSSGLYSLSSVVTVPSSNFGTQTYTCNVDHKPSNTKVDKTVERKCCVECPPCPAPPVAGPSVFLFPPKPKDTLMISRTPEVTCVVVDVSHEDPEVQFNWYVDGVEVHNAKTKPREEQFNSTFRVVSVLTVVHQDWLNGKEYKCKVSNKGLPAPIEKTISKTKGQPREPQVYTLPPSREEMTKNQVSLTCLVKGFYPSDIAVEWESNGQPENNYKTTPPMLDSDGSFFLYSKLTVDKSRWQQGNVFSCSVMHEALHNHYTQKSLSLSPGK
For B1, the “CD40 EC50 (HEK-Blue CD40L reporter cells)” value (from here on “CD40 EC50”) (human CD40 [1]) was 65.6 ng/mL and the “IFNγ EC50 (HEK-Blue IFNγ reporter cells)” value [2] was 15.4 ng/mL.

B2: IFA43 (antibody, human IgG2, kappa)
heavy: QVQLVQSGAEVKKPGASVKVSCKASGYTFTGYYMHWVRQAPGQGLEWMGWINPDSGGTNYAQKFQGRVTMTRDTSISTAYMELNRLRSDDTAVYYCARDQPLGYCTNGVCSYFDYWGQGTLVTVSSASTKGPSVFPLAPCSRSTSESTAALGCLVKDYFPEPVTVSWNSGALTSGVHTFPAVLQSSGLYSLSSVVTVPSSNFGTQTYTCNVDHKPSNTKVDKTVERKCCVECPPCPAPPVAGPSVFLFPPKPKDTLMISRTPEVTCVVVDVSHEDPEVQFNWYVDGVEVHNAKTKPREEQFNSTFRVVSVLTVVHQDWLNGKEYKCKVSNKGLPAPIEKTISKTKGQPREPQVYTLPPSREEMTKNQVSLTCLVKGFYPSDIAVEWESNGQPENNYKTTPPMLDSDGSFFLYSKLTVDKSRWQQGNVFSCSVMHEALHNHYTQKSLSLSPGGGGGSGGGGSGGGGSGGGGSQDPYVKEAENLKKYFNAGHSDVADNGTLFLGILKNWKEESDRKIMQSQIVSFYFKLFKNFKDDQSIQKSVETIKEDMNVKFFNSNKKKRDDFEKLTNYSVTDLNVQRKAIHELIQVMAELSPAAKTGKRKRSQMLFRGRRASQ
light: DIQMTQSPSSVSASVGDRVTITCRASQGIYSWLAWYQQKPGKAPNLLIYTASTLQSGVPSRFSGSGSGTDFTLTISSLQPEDFATYYCQQANIFPLTFGGGTKVEIKRTVAAPSVFIFPPSDEQLKSGTASVVCLLNNFYPREAKVQWKVDNALQSGNSQESVTEQDSKDSTYSLSSTLTLSKADYEKHKVYACEVTHQGLSSPVTKSFNRGEC
In the case of B2, the “IFNγ activity EC50 (HEK-Blue IFNγ reporter cells)” value [3] is reported as less than 0.01 ng/mL, the “CD40 EC50” value (human CD40 [1]) is reported as 50.8 ng/mL and the “IFNγ EC50 (HEK-Blue IFNγ reporter cells)” value [2] is reported as less than 0.001 ng/mL.

B3: IFA44 (antibody, human IgG2, kappa)
light: DIQMTQSPSSVSASVGDRVTITCRASQGIYSWLAWYQQKPGKAPNLLIYTASTLQSGVPSRFSGSGSGTDFTLTISSLQPEDFATYYCQQANIFPLTFGGGTKVEIKRTVAAPSVFIFPPSDEQLKSGTASVVCLLNNFYPREAKVQWKVDNALQSGNSQESVTEQDSKDSTYSLSSTLTLSKADYEKHKVYACEVTHQGLSSPVTKSFNRGECGGGGSGGGGSGGGGSGGGGSVPVARLHGALPDARGCHIAQFKSLSPQELQAFKRAKDALEESLLLKDCRCHSRLFPRTWDLRQLQVRERPMALEAELALTLKVLEATADTDPALVDVLDQPLHTLHHILSQFRACIQPQPTAGPRTRGRLHHWLYRLQEAPKKESPGCLEASVTFNLFRLLTRDLNCVASGDLCV
heavy: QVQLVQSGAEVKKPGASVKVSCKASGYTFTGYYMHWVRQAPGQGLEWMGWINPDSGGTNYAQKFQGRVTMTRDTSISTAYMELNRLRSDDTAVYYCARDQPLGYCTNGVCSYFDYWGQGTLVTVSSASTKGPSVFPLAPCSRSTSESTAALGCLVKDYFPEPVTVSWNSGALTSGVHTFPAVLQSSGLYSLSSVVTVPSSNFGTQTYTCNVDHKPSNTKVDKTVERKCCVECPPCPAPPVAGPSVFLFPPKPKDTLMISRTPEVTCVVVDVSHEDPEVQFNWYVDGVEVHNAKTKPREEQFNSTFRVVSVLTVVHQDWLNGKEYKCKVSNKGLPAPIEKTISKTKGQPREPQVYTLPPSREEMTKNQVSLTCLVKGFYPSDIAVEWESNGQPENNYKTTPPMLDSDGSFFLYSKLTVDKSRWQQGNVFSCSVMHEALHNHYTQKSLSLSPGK
B3 was tested, and the “CD40 EC50” value (human CD40 [1]) was 41.4 ng/mL and the “IFNλ EC50 (HEK-Blue IFNλ reporter cells)” value [4] was 0.153 ng/mL.

B4: IFA45 (antibody, human IgG2, kappa)
heavy: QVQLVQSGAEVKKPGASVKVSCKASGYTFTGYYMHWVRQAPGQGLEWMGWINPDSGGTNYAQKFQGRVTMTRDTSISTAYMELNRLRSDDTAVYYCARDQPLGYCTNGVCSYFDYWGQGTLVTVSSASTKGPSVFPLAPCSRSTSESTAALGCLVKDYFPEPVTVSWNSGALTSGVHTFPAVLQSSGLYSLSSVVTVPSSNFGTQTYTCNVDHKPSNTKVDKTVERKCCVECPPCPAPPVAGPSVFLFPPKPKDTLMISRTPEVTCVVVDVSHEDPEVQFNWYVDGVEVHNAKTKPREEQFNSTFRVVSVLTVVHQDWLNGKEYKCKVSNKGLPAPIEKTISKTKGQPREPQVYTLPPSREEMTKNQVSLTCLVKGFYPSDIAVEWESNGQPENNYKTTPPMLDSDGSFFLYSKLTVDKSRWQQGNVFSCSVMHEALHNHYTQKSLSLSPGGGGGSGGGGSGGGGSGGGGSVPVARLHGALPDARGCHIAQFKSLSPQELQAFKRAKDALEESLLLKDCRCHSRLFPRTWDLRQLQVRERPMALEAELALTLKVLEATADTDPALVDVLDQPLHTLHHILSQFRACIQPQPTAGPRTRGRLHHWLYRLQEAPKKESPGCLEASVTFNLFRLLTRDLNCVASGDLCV
light: DIQMTQSPSSVSASVGDRVTITCRASQGIYSWLAWYQQKPGKAPNLLIYTASTLQSGVPSRFSGSGSGTDFTLTISSLQPEDFATYYCQQANIFPLTFGGGTKVEIKRTVAAPSVFIFPPSDEQLKSGTASVVCLLNNFYPREAKVQWKVDNALQSGNSQESVTEQDSKDSTYSLSSTLTLSKADYEKHKVYACEVTHQGLSSPVTKSFNRGEC
With B4 the “CD40 EC50” value (human CD40 [1]) was 25.8 ng/mL and the “IFNλ EC50 (HEK-Blue IFNλ reporter cells)” value [4] was less than 0.001 ng/mL.

B5: IFA108 (antibody, human IgG2, kappa)
heavy: QVQLVESGGGVVQPGKSLRLSCAASGFTFSSNGIHWVRQAPGKGLEWVAVIWSDGSNKFYADSVKGRFTISRDNSKNTLYLQMNSLRAEDTAVYYCARASGSGSYYNFFDYWGQGTLVTVSSASTKGPSVFPLAPCSRSTSESTAALGCLVKDYFPEPVTVSWNSGALTSGVHTFPAVLQSSGLYSLSSVVTVPSSNFGTQTYTCNVDHKPSNTKVDKTVERKCCVECPPCPAPPVAGPSVFLFPPKPKDTLMISRTPEVTCVVVDVSHEDPEVQFNWYVDGVEVHNAKTKPREEQFNSTFRVVSVLTVVHQDWLNGKEYKCKVSNKGLPAPIEKTISKTKGQPREPQVYTLPPSREEMTKNQVSLTCLVKGFYPSDIAVEWESNGQPENNYKTTPPMLDSDGSFFLYSKLTVDKSRWQQGNVFSCSVMHEALHNHYTQKSLSLSPGAEAAAKEAAAKASYNLLGFLQRSSNFQCQKLLWQLNGRLEYCLKDRMNFDIPEEIKQLQQFQKEDAALTIYEMLQNIFAIFRQDSSSTGWNETIVENLLANVYHQINHLKTVLEEKLEKEDFTRGKLMSSLHLKRYYGRILHYLKAKEYSHCAWTIVRVEILRNFYFINRLTGYLRN
light: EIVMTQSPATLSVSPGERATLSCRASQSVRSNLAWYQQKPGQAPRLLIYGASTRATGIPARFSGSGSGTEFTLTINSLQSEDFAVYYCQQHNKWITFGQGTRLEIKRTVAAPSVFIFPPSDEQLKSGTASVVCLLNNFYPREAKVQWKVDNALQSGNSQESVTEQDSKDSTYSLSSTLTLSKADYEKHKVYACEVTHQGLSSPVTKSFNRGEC
In the case of B5, the “IFNβ EC50 (HEK-Blue IFN-α/β reporter cells)” value [5] is reported as 1.27 ng/mL and the “CD40 EC50” value (human CD40 [6]) is reported as 37.3 ng/mL.

B6: IFA109 (antibody, human IgG2, kappa)
heavy: QVQLVESGGGVVQPGKSLRLSCAASGFTFSSNGIHWVRQAPGKGLEWVAVIWSDGSNKFYADSVKGRFTISRDNSKNTLYLQMNSLRAEDTAVYYCARASGSGSYYNFFDYWGQGTLVTVSSASTKGPSVFPLAPCSRSTSESTAALGCLVKDYFPEPVTVSWNSGALTSGVHTFPAVLQSSGLYSLSSVVTVPSSNFGTQTYTCNVDHKPSNTKVDKTVERKCCVECPPCPAPPVAGPSVFLFPPKPKDTLMISRTPEVTCVVVDVSHEDPEVQFNWYVDGVEVHNAKTKPREEQFNSTFRVVSVLTVVHQDWLNGKEYKCKVSNKGLPAPIEKTISKTKGQPREPQVYTLPPSREEMTKNQVSLTCLVKGFYPSDIAVEWESNGQPENNYKTTPPMLDSDGSFFLYSKLTVDKSRWQQGNVFSCSVMHEALHNHYTQKSLSLSPGAEAAAKEAAAKASYNLLGFLQRSSNFQSQKLLWQLNGRLEYCLKDRMNFDIPEEIKQLQQFQKEDAALTIYEMLQNIFAIFRQDSSSTGWNETIVENLLANVYHQINHLKTVLEEKLEKEDFTRGKLMSSLHLKRYYGRILHYLKAKEYSHCAWTIVRVEILRNFYFINRLTGYLRN
light: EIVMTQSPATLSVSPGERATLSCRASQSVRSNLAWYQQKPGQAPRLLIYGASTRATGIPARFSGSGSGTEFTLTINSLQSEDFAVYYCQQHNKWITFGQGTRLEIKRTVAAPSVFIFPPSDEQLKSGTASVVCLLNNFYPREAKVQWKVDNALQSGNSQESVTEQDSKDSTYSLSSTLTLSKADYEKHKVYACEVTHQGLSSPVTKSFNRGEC
For B6, the “IFNβ EC50 (HEK-Blue IFN-α/β reporter cells)” value [5] was 0.45 ng/mL and the “CD40 EC50” value (human CD40 [6]) was 30 ng/mL.

B7: agonistic anti-CD40 antibody CP870,893 (antibody, human IgG2, kappa)
heavy: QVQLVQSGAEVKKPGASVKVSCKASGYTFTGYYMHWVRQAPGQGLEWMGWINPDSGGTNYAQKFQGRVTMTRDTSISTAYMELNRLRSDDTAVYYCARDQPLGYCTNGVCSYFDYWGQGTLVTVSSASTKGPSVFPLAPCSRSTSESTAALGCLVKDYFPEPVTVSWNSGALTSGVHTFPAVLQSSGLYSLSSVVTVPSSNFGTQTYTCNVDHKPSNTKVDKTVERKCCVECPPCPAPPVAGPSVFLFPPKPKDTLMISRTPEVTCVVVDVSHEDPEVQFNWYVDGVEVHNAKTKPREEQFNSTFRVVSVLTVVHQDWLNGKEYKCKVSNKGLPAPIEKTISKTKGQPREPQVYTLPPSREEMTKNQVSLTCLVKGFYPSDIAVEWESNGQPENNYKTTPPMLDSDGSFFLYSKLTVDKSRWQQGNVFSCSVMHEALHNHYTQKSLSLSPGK
light: DIQMTQSPSSVSASVGDRVTITCRASQGIYSWLAWYQQKPGKAPNLLIYTASTLQSGVPSRFSGSGSGTDFTLTISSLQPEDFATYYCQQANIFPLTFGGGTKVEIKRTVAAPSVFIFPPSDEQLKSGTASVVCLLNNFYPREAKVQWKVDNALQSGNSQESVTEQDSKDSTYSLSSTLTLSKADYEKHKVYACEVTHQGLSSPVTKSFNRGEC
With B7 the “EC50, agonistic CD40 activity in the experiment of FIG. 3 (HEK-Blue CD40L reporter cells)” value (human CD40 [7]) was 57 ng/mL, the “EC50, potency on CD40 pathway (HEK-Blue CD40L reporter cells)” value (human CD40 [7]) was 30 to 80 ng/mL and the “mean EC50, agonistic CD40 activity (HEK-Blue CD40L reporter cells)” value (human CD40 [7]) was 48 ng/mL.

B8: anti-CD40 antibody 3G5 (Celldex) (antibody, human IgG2, kappa)
heavy: QVQLVESGGGVVQPGKSLRLSCAASGFTFSSNGIHWVRQAPGKGLEWVAVIWSDGSNKFYADSVKGRFTISRDNSKNTLYLQMNSLRAEDTAVYYCARASGSGSYYNFFDYWGQGTLVTVSSASTKGPSVFPLAPCSRSTSESTAALGCLVKDYFPEPVTVSWNSGALTSGVHTFPAVLQSSGLYSLSSVVTVPSSNFGTQTYTCNVDHKPSNTKVDKTVERKCCVECPPCPAPPVAGPSVFLFPPKPKDTLMISRTPEVTCVVVDVSHEDPEVQFNWYVDGVEVHNAKTKPREEQFNSTFRVVSVLTVVHQDWLNGKEYKCKVSNKGLPAPIEKTISKTKGQPREPQVYTLPPSREEMTKNQVSLTCLVKGFYPSDIAVEWESNGQPENNYKTTPPMLDSDGSFFLYSKLTVDKSRWQQGNVFSCSVMHEALHNHYTQKSLSLSPG
light: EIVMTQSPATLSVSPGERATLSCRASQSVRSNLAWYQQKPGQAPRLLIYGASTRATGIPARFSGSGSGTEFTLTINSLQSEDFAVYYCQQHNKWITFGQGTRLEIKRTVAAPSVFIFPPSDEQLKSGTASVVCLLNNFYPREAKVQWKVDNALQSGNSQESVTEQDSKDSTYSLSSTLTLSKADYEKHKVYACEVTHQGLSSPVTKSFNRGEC
In the case of B8, the “mean EC50, CD40 activity (HEK-Blue CD40L reporter cells)” value (human CD40 [7]) is reported as 9.3 ng/mL.
